According to paper doi:10.1101/498428:

Legend:
Experiment in all cases: native gel or EMSA
[1] = molecular target: His-Halo-PRDM9^Cst ZnF1-11 (Mus musculus castaneus (CAST/EiJ strain))
[2] = molecular target: His-MBP-eYFP-PRDM9^Cst ZnF (Mus musculus castaneus (CAST/EiJ strain))
[3] = molecular target: His-MBP-eYFP-PRDM9^Dom2 ZnF (Mus musculus domesticus (C57BL/6J strain))
[4] = molecular target: His-PRDM9^Cst ZnF1-11 (Mus musculus castaneus (CAST/EiJ strain))
[5] = molecular target: His-PRDM9^Cst ZnF2-6 (Mus musculus castaneus (CAST/EiJ strain))
[6] = molecular target: His-PRDM9^Cst ZnF2-8 (Mus musculus castaneus (CAST/EiJ strain))
[7] = molecular target: His-PRDM9^Cst ZnF (Mus musculus castaneus (CAST/EiJ strain))
[8] = molecular target: His-eYFP-PRDM9^Cst (full-length PRDM9^Cst) (Mus musculus castaneus (CAST/EiJ strain))
[9] = molecular target: His-eYFP-PRDM9^Cst ZnF1-11 (Mus musculus castaneus (CAST/EiJ strain))
[10] = molecular target: His-eYFP-PRDM9^Cst ZnF2-11 (Mus musculus castaneus (CAST/EiJ strain))
[11] = molecular target: His-eYFP-PRDM9^Cst ZnF (Mus musculus castaneus (CAST/EiJ strain))

Work on “His-Halo-PRDM9^Cst ZnF1-11 (domain or fragment)” yielded a stoichiometry N [1] of 3.

“His-MBP-eYFP-PRDM9^Cst ZnF (domain or fragment)” gave a stoichiometry N [2] of 3.

In the case of “His-MBP-eYFP-PRDM9^Dom2 ZnF (domain or fragment)”, the stoichiometry N [3] is reported as 3.

In the case of “His-PRDM9^Cst ZnF1-11 (domain or fragment)”, the stoichiometry N [4] is reported as 3.

Work on “His-PRDM9^Cst ZnF2-6 (domain or fragment)” yielded a stoichiometry N [5] of 3.

With “His-PRDM9^Cst ZnF2-8 (domain or fragment)” the stoichiometry N [6] was 3.

With His-PRDM9^Cst ZnF (domain or fragment) the stoichiometry N [7] was 3.

With “His-eYFP-PRDM9^Cst (full-length PRDM9^Cst) (natural protein)” the stoichiometry N [8] was 3.

“His-eYFP-PRDM9^Cst ZnF1-11 (domain or fragment)” was tested, and the stoichiometry N [9] was 3.

Substance “His-eYFP-PRDM9^Cst ZnF2-11 (domain or fragment)” has a stoichiometry N [10] of 3.

Work on “His-eYFP-PRDM9^Cst ZnF (domain or fragment)” yielded a stoichiometry N [11] of 3.
